Drawing on article PMC7335806 (2020), this text covers ratio to parent for one variant.

First the molecules themselves.
B1: His-tagged human Sar1A (H79G) [human] / RRFR peptides (first intracellular loop of Fzd6) [mouse] (parent complex)
chain 1: not shown
chain 2: VRRFRYPERPC

Variants of B1 are the subject of this assay. In words: peptide pull-down (peptides linked to thiopyridone-Sepharose 6B), immunoblot quantification; n = 3; parent: 1; read off a plot. (In general: In western blotting, separated proteins are transferred to a membrane and probed.)
As to chain 2 R2A, chain 2 R3A, chain 2 R5A, the ratio to parent is roughly 0.08.
